Experimental data taken from patent US5731185.

System: HphI restriction endonuclease (Haemophilus parahaemolyticus)
Test: cleavage_in_vitro
Settings: crude extract cleaves lambda DNA; pAGR3-Rg1 clones in ER2252 about 750 units/g

Substance: lambda DNA
- activity (units/g cells): 5000
